# Assay: soluble on expression in E. coli; label from the status in PepcDB or PDB records
row,Sequence,soluble on expression in E. coli
1,MASEALHQVGDGEEAVLKKENFNMMNALDQLPKPFPNPKSMNRTVTTKGLPLASKGNLVNFLEDDTINLLKPLPVEDSDCSSDETSISAFSSTLLNPIKLAVTQPNSSFFAGMLEGELNKLSFSPMAKNAENEDLALGPCPCPSKSQMATRGLLDLDNPELETETSSTHSESSVVVDLPDTPFIFEHTVNNSTAVISWTYALGKQPVSFYQLLLQEVAKTQENELPEAKNRPWIFNKILGTTVKLMELKPNTCYCLSVRAANTAGVGKWCKPYKFATLATDFSSFPENYPIQITVRRKEPRQKIVSIGPEEMRRLEDLEYLFPC,soluble
2,EIKDTYNIGELSPGMTATFEGEVISALPIKEFKRADGSIGKLKSFIVRDETGSIRVTLWDNLTDIDVGRGDYVRVRGYIREGYYGGLECTANYVEILKKGEKIES,soluble
3,MKIGFIGVGKMASAIITGLKKTDFELIISDSSLKAGQDKAEALGVAVAQSHQELVDEVDLLVLGVKPQVLASVLNPLILTKPILSMAAGTSLEYLDKLSQADLPIIRIMPNLNAKILQSSTAICRNDKVSDQLFAIAKQITDSFGTTFEIAEKDFDTFTALAGSSPAYIALFIEAMSKAGLKHGFPKDLAFKIVSQTVLATTSNLIQGQEKPNDLIDKVSSPGGTTIAGLLDLEKTGFTASTISAIDATIDKSKNMLEHHHHHH,not soluble
4,MTLTEQPQRIAILHSLYLEYFLALGTPPIASAGASTGDAMKALGEWETLKPYAGTAKIIDLGSARDLNLEAILGANPDVIVTFKGQGNLDKIYEQLEQIAPVILVDFSAPWQEQILACAEIVNKEADAQKLIKEIEDSVQSAKEKLSRLEHHHHHH,not soluble
5,MKTEEMKFINESEFKKLKHYFEQKNTTSSLVLLVALTTGGRFSEIAKLKREDLDIKNNKIHLRGTKTETSDRIISIDTVTMKRIQSFIDSRPTNISGYIFTVDGKTITNAAVNKVLRKACANLNIKEITIHSLRHSFCSILIHHGFSILYISKHLGHSNPATTQSIYSHLLQETYEREDELEHHHHHH,not soluble
6,MAHHHHHHMNNSLLGSLFAKRTKEPRDLDAAEMPQLRTGRSRASSESSTTSARSQRDGKKKKQQRRHPGKRRDAQDSDSGDEGVRQHSTPLTSPAPHPRASSVGSEFSDIEENPRPRNQRRSSGKVLRSSGTVAGAEKAKADERPPMAHSTPEVLPGADNLATNPLGEAGAGGEGAAGGQRHLPPMSQSAPMTSGRGSAAETVAVLRKEGSIEASQQQASTLTAGQLCGVAANSTVSFSGDDAAVLGASLNNTCSAATTISHHPTQPLAPAPGSSSGSPEDHKGSPPRACSSAEEGKKCDNRDSNTRRAVSGKDGEEMTHVDTEKQQPHDRSGDTPDRDVGASGKAWEGQRDATSAVEKDTHPLLDTASLRHTLDSFGSRPSSKLRRRSLGIGGSSKCVPAMLDRSRDGDGTSMTPSDGDEILKGLSFFNAASGEFVLTNHDIHSLEAFLFGTRALVVHINDLQKALLEMQHATDLARLL,not soluble
7,LLGLGVGPGDPELITLKALRLLRAAPVVGYFVAKGKKGNAFGIIEAHLDQAQVRLPLVYPVTTEKLEPPLCYETIISDFYDTAAEQLAAHLDAGRDVAVICEGDPFFYGSYMYLHDRLATRYESEVVPGVCSMLGGAAVLGAPLVYRNQSLSVLSGVLPEEELRRRLADADAAVVMKLGRNFDKVRRVLVELGLERRALYVERATMANQRIVPLERVEPMASPYFSLIVVPGDKWQGGAGGE,not soluble
8,MSLNYNTPKVSIVVPSLNSISYIRECIDSILNQTLKDIEILCIDANSTDGTLEVLKNYEKKDKRLRVIISDKKSYGYQMNLGIKEAKGEYLGIVESDDYIKTNMYERLYEIAKKNDCEVVKGDFYIFAYGKTEYVNVLRNSCEDIYNYKVNWNKDIRIFLGSDGINPIGIYRLDLLRTNQIKLNETPGASYQDNGLWFQIFALAKSIYFINEAFYMLRRDNPNSSVKSKEKVYCACEEYDFIRDFLKKHPDLEKTLAPICALHRFGNYMFTLERIDERYKLDFLKRFSQDFRKILKDKELDENLFGNINMQRINKIIENPVIYYYFSRGARARLQNQLVYRLGKVVVEAKSFNKIIKLPFLMLKICLEHNFEHKVYRSIVQFRPDLKLLPLECYLDYHEALVIKEHLSYKFGKLILLSFKGWYKGKIFILPFMLKKRYKEYKNKMEGHHHHHH,soluble
9,MHHHHHHMELSLASITVPLESIKPSNILPVTVYDQHGFRILFHFARDPLPGRSDVLVVVVSMLSTAPQPIRNIVFQSAVPKVMKVKLQPPSGTELPAFNPIVHPSAITQVLLLANPQKEKVRLRYKLTFTMGDQTYNEMGDVDQFPPPETWGSL,soluble
10,SVTIDHTTENAAPAQAPVSDRAWALFRALDGKGLVPDGYVEGWKKTFEEDFSPRRGAELVARAWTPRRGAELVARAWTDPEFRQLLLTDGTAAVAQYGYLGPQGEYIVAVEDTPTLKNVIVCSLCSCTAWPILGLPPTWYKSFEYRARVVREPRKVLSEMGTEIASDIEIRVYDTTAETRYMVLPQRPAGTEGWSQEQLQEIVTKDCLIGVAIPQVPTV,soluble
11,MTERLEFTESAFEILGRKWNGLIIQSLLDSDRGSLHFAELSRSVHACSDRVLTVRLKELEDAGIIKRVCCPDNGKLGYRLTEKGSSMRPLMSEISRWAAENI,not soluble
12,MGTLLIDVDGTVVDSYPGIREAFIHSMTSVGIPVPEESWLRRIPGPPMVETMRALGQSDSVTAAALACFRQQYDQISWRNSQLFDGWHDALSEWRSQGIRLFTATSKNEHLARLTLEYLGVADLFDFIGGADPTVGRETKADVIAYVLATTETSEHSPILMVGDRSHDTEGAAAFGIPTMLVTWGYGNEQEWSHADYHARNMAEAKGIVRDFFN,not soluble
13,MGSDKIHHHHHHMYREYQPCGLLAPYVDKIWEFKGSPEYGMRINVLPDGCTDLIFALGGITQPVGSEGRIMPSCRSFFVGPMKRYSELVAYTETVHMVGIRFHPCGLFRFMDLPVQELGGQRISSADLGIKLFDDSFTERLYELPDLRSRIQCIETVLVRSMHKHDVVDKQIVFAVNHIHLYHGQREIRLLAEDTCLCQRHLERRFKLFTGFTPKEYSRIVKFRHAIDLLKNTTEANNLLSVAVNAGYYDVSHFLKEVKTLSGGTAESFLSPTLPQEGLLTYIEK,not soluble
14,MECRLGCGACCIAPSITSFIPGMPNGKPAGVRCVQLNEENLCKLFGKAERPKVCHQFSACPDVCGSTSEQAIQTITELESMTLLEHHHHHH,not soluble
15,MSLSTLQAELASAKTEYEAKELEIRNLFSEKNTQERRLQTLVAQVAAKRKELSNALSQSSAETLTSELQSLESQYQACQTLINNISNYLTVKAGLDKKNASELVERAQKNLLNFIYNSIKSELKVLTDEQVELMKDFVVIEKLIRSELSDSVRQSYFLGCVFDELYGQLKGSDFTSHKEKMLKKYDAESSIG,soluble
16,MDEFGSLLGDSPRSSVNNWEKGVSIPKRDKLEKIAILGNMLPDQILYGRADEYLYDLIDSSFNVKFSDNILYEIFESVPPEKRSYDDLMWLAVAKYFIDNGTYGKVVGKFNYISMLGIPNLYTGSYQNEFIEQREDYKQQEVKYYVYADPEKNILHIMPFVPNEKNIELLYEFPELLEQQADHEVFTANFEQIGLTLKGSTIVYYGIDKQKLEAKTQAYKYDEAVDLYRIAQLPETLSMFDDEIQKQISFLKSK,not soluble
17,MTPDWFAVVDATWPAADSRTDGTLTLREGRGGGKRVSAASASGAVSEPQIEAAEAAMRQMGQPPLFQLRPGDEGLDAALAGRGYSIVDPVNIYACPVSQLTDLPMPRVTVFALWEPLAIMRELWAEGGIGPGRLAVMDRVKGPKTGLLMRHQDKPGGVAFVAIHDGVAMLHALEIPPHQRRKGLGKWAMRGAAFWALDNGAHTLSVICTKANEGANALYRSLGMQLVGEYHYRLLQEERQTA,not soluble
18,MKVTVHAKNIELTNALKDCVEKKISKLSKYFEPGVEAKATLSVEKNKQIVEIMIPFNGILLRGEESTDDMYKSIDLVEEKIERQIRKQKTRLSKKNRYDSLRFAHIDPIEDMKEEKEAKIVKTKRFDVKPMGAEEAVLQMELIGHDFFVFQDPETNQLNVVYKRKDGNYGLIEPGLGEELEHHHHHH,soluble
19,MVGSLLPSHATEFEKRLADACDFHQDVDGAVLGISRAKLITRPPRFLPWLIEEYGLGELTPYVPNLYDLIDQGLAWQRLRGSVAAIELGLKWLELSARFTPAWSGRAWWNSFQLDFDQLPEQSSLEAIEAIVDLSKSFRSDFRRSTYGYDVEATEGDMSHLDDSMLDFESGVRLTARDTLFSFGRTTQIKHTLTKEEGKLIGNWIDDVDEELSWNQIDYPWELANFPWCSVKKHERDILIAKWFQNRPLYLALRDLDNTLIGYRRCYAVQPVEQAVEGVYSHCGNRFNPSPTGTMLFLAARTDFEDVENKQAASVPLLVHGSLVEQTPLGKLWLGADELRGGVEILKTPINIPLRADVREQFKILLRF,not soluble
20,GSHMQSYQISSRLMAQEGQRTSVQTSSLIQSLFDFRLAALRIHQDSTAKNASLINALVSRDSSRLDEFFSSVDELELSNAPDLRFISSHDNILWDDGNASFYGIAQQELNKLIRRVAISGNWHLVQTPSEGKSVHILMRRSSLIEAGTGQVVGYLYVGIVLNDNFALLENIRSGSNSENLVLAVDTTPLVSTLKGNEPYSLDYVVHSAKDAMRDSFIVGQTFLEVESVPTYLCVYSIQTNQNVLTLRDNESVPTYLCVYSIQTNQNVRHQ,soluble
21,MSLGGDNAEYGYVEQTHPAFIAGSFTTEKNAKSRYYLLAKYEMTVLQYSALTQAECPAPSNKQRLPVVSLSWMQAMEAADKYNIWLRENAADKLPKEDGVAGFLRLPTEVEWEFAARGGLNVSTAEFRDLRYPMPEGVNAYEWFAGTQSANGQLQLSGLLKPNPLGLHDMLGNVDEMMFEPFRLNKLDRQHGQAGGYVVRGGDFRTAQGELRSSLRKERNYYDAKAAATSKTTGVRLALASSTLTSRERVSSIETSWKKLGTGSGDTSQGEDKSAVQALGTLASGVADEALKEKLKALENQLRASNQQQEETRDQAIRASLNLGAFLCTKMLDDGKYLDFLQKNYALNCSAAEQDASCPMRKGKLDEQKDRLHKLSRYYASSLVDSATLYGEPLLARQIPVMGEIISRNEQLKELKPYLQTHWVNQQAFLKTQKIDTDAWLNRCKAVQEGHHHHHH,not soluble
22,GPMRRERGRQGDSSSCERQVDRVNLKPCEQHIMQRIMGEQEQYDSYDIRSTRSSDQQQRCCDELNEMENTQGCMCEALQQIMENQCDRLQDRQMVQQFKRELMSLPQQCNFRAPQRCDLDVSGGRCS,soluble
23,MSNFISPVYEIKSIPIEKISPNDYNPNSVAPPEMKLLYDSIKSDGYTMPIVCYYDKEEDRYSIVDGFHRYRIMLDYSDIYERESGRLPVSVIDKSLDYRMASTIRHNRARGSHD,not soluble
24,MQGVLAGLPSGIPGIGLEIEGAVQHAPQPGRHSIRCSLKVNHRIDERAQYHLFCTSKSANTTCPKGPSRVLCRDIFDIFDYRNFSMPRANEIKKGMVLNYNGKLLLAKDIDIQSPTARGAATLYKMRFSDVRTGLKVEERFKGDDIVDTVTLTRRYVDFSYVDGNEYVFMDKEDYTPYTFTKDQIEEELLFMPEGGMPDMQVLTWDGQLLALELPQTVDLEIVETAPGIKGASASARNKPATLSTGLVIQVPEYLSPGEKIRIHIEERRYMGRAD,not soluble
25,TEQERLELEAAAFRRLVAHLDSRKDVQNIDLMNLSGFCRNCLSKWYKAAADEKHIDITLDDAREVVYGMPYSEWKANYQKEASAEQQAAFVKESKH,not soluble
26,MSDTTELVDLAVIFPDLEIELKYACADNITGKAIYQQARCLLHKDAITALAKSISIAQLSGLQLVIYDAYRPQQAQAMLWQACPDPQYVVDVTVGSNHSRGTAIDLTLRDEHGNILDMGAGFDEMHERSHAYHPSVPPAAQRNRLLLNAIMTGGGFVGISSEWWHFELPQAASYPLLADQFSCFISPGTQHVS,not soluble

# From the DeepSol protein solubility set
